This note sets out measurements from PMC4090420.

pKd: −log10 of the molar value.

Test [1] addresses b12 3–5 αIM (Homo sapiens scaffold (engineered FNfn10)) (UniProt P02751). The test is described as follows: SPR. Background: Surface plasmon resonance follows binding to a sensor surface in real time, without labels.
Another test addresses b12 3–5 αIM F25A (human). The test is described as follows: ELISA. A general note: In an ELISA, binding on a coated surface is turned into a signal by an enzyme label.
The next test deals with b12 3–5 αIM H24A (human). The test is described as follows: ELISA.
Another test has as its target b12 3–5 αIM L84A (human). The test is described as follows: ELISA.

Chain of b12 3–5 αIM (Homo sapiens scaffold (engineered FNfn10)) (P02751 whole entry, looked up, stated change not applied): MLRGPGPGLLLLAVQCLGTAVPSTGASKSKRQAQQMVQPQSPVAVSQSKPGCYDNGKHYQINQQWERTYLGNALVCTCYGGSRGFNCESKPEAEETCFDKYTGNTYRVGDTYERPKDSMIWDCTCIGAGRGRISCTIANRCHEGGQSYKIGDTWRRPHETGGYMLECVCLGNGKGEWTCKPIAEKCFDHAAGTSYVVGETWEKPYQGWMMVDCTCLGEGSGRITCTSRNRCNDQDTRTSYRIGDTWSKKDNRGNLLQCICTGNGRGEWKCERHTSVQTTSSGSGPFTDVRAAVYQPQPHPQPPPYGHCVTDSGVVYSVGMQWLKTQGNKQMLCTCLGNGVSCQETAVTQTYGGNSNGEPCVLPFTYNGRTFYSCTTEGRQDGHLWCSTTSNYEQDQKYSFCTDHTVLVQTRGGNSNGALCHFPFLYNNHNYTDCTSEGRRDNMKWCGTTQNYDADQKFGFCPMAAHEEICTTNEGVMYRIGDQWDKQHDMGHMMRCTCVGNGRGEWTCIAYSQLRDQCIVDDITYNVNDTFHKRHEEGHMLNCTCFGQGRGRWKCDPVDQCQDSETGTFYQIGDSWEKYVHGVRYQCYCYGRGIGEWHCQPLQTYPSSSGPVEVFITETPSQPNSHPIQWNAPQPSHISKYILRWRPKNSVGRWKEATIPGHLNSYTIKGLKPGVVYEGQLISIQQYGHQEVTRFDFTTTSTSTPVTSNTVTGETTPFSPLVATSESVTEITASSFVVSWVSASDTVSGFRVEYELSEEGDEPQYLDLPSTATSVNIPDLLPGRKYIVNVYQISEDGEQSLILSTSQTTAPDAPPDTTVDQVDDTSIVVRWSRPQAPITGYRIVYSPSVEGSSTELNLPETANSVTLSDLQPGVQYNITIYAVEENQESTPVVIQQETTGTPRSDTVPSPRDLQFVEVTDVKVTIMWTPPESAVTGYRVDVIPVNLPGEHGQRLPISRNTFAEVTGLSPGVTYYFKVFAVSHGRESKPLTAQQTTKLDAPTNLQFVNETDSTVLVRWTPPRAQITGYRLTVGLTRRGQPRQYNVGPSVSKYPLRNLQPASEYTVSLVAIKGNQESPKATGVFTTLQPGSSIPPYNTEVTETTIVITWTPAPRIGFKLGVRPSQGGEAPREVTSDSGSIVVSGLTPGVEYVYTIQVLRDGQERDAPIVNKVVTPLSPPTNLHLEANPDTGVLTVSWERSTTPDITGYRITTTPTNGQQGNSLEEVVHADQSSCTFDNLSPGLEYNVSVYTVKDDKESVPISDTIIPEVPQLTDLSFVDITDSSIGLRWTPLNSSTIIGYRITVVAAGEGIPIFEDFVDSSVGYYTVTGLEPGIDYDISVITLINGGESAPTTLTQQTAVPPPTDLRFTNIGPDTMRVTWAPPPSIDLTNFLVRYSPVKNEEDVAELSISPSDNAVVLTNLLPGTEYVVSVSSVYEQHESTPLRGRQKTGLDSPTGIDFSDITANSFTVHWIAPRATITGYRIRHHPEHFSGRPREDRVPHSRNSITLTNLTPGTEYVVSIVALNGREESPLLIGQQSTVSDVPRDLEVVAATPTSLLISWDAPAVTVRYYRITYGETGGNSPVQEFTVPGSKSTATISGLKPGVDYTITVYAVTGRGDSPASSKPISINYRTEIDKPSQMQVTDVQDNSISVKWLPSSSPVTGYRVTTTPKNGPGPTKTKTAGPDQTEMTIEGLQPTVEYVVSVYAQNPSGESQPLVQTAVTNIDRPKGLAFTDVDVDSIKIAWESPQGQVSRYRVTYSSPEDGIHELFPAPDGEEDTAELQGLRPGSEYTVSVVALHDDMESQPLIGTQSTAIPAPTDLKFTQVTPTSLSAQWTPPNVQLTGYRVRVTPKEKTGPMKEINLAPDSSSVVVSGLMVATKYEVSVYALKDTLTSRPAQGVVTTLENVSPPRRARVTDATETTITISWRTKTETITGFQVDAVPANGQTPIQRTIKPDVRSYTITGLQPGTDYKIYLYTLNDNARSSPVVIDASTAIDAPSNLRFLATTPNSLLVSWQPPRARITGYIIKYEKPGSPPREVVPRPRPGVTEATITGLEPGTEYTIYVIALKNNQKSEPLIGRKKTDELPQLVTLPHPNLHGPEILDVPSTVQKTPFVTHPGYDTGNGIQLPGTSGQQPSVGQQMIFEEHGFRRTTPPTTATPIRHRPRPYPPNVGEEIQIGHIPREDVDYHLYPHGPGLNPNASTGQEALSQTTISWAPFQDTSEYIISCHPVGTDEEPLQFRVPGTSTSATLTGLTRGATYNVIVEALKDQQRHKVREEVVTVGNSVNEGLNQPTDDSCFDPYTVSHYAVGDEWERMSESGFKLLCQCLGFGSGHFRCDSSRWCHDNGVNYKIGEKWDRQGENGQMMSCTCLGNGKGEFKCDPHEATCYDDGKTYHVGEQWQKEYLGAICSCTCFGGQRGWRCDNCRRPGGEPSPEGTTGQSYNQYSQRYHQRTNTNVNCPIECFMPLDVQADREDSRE

In general, pKd refers to the negative decadic logarithm of the Kd, by convention in mol/L. Lower therefore signals a high Kd. The term koff denotes a measure of how fast the partners let go of each other. Lower therefore signals slow dissociation. In the case of b12 Fab, in test [1], the pKd is 7.37 and the koff amounted to 0.0068 s⁻¹.
As to b12 MAb (antibody), the figures for the fold decrease of binding against wild type b12 3–5 αIM with b12 3–5 αIM F25A (human), with b12 3–5 αIM H24A (human) and in the test with b12 3–5 αIM L84A (human) were above 10 fold, above 10 fold and 5 fold, respectively.
